Measurements from article doi:10.1101/2020.06.02.131169 (bioRxiv, 2020).
Each block holds one molecule with its values, some of them ahead of it.

Experiments:
[1] = molecular target: bifunctional TreS-Mak of Estrella lausannensis (trehalose synthase-maltokinase) (Estrella lausannensis); assay: SEC
SEC = molecular target: the molecule itself; assay: SEC

stoichiometry N [1]: 2
Molecule: bifunctional TreS-Mak of Estrella lausannensis (trehalose synthase-maltokinase) (enzyme)

B1: GlgE of Estrella lausannensis (maltosyl-1-phosphate transferase) (enzyme, UniProt A0A0H5DRC6 1-675, looked up)
chain: MSVSAAEKRQLLTQVKASGSMYTNTLHSIVIQNISPKPEPFGPAKRVLLEQVEVEADIFTDPHTKLEADLIVKAPGLRKTTRIPFHPLVNDRFKAVFVPDTPGTYSFFVEAWVNPAALWQEDLRKKQEARLDLTVDLQIGAALLVEVADLLPPEESVKLLQIAKKLREQKGAEAVAFDPEIARLGRLARPKSRQGVCSQEQEVFVTRKKALFSTWYELFPRSCSGTMRHGTFNDVVAKLPRISRMGFDVLYLPPIHPIGKTKRKGKNNALTALPDDPGSPWAVGSHEGGHDAIQRELGTLADFERLVKEAESLGIEIALDIALQCSPDHPYLKEHPEWFLKRPDGTYQYAENPPKKYEDIIPFHFTEDNKDTLFREILRIFLFWMKRGVRIFRVDNPHTKPFALWEYVIGEVRKVDSGVIFLAEAFTRPKIMHHLARIGFDQSYTYFTWRNTKWELTEYLTELTKTEARNYLRPNFFVNTPDILPESLQWGGRAAFLTRLILAATLSSSYGIYGPAFEQMLSEAVPGKEDYIDSEKYEIKPWDFEKKGTISETIEIVNRIRKENPALQATGNLEFYATDNDYLLAYGKQGPQGESLLIVVNLDHYHTQSGYVTLPLMHLGIQEKEPYLVDDLLSGERYIWEGERNYIQLSPHLVPAHIFRIRPKMLRENNFDYFI
stoichiometry N (SEC): 2
